The target of experiment [1] is T1, human OX40, membrane-bound (human, UniProt P43489 29-277).
T1 sequence: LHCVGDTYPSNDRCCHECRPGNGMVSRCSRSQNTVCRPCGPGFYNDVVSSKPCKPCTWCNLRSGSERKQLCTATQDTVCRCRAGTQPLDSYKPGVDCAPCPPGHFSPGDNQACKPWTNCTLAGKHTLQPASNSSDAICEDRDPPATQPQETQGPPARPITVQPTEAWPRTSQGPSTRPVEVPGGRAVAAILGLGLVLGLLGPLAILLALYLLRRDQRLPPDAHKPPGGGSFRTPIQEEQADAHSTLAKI
The experiment can be described thus: FACS on activated primary human CD4+/CD25+ T cells, purified recombinant antibody, APC GMFI. As for the experimental part:
Cells were activated for several days before the binding assay in order to induce OX40 expression. Briefly, PBMCs were cultured for three or four days with magnetic beads coated with anti-human CD3 plus anti-human CD28, in the presence of recombinant human IL-2. On the day of the assay, the beads were removed and the cells stained with a titration of each anti-OX40 antibody. Bound antibodies were detected with a fluorescently conjugated anti-human IgG polyclonal secondary antibody, and the cells were co-stained for CD4 and CD25 to detect activated CD4 T cells. The fluorescence intensity of the staining was measured using a FACSCanto II flow cytometer (Becton Dickinson). The geometric mean fluorescence intensity (GMFI) or median fluorescence intensity (MedFI) of anti-OX40 antibody staining was calculated for the CD4+CD25+ population (FACSDiva software). EC₅₀s for antibody binding were calculated using GraphPad Prism software.

Experiment [2] addresses T2, cynomolgus OX40, membrane-bound (cynomolgus monkey, UniProt P43489 29-277 (human entry)).
T2 construct: also called cynoOX40-CHO
T2 chain: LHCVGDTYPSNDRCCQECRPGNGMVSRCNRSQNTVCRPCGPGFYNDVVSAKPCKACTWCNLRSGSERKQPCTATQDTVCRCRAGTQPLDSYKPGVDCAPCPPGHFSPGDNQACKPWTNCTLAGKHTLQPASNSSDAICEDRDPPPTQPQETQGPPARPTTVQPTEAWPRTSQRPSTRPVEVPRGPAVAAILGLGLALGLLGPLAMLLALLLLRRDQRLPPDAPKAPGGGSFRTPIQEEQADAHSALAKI
The experiment can be described thus: FACS on activated primary cynomolgus CD4+/CD25+ T cells, purified recombinant antibody, APC GMFI. The method, then: Briefly, cells were activated for several days before the binding assay in order to induce OX40 expression. Total leukocytes were isolated from cynomolgus macaque peripheral blood by lysis of red blood cells using an ammonium chloride buffer. The leukocytes were then cultured for four to five days with in flasks pre-coated with anti-human CD3 plus anti-human CD28 antibodies that cross-react with cynomolgus macaque, in the presence of recombinant human IL-2, in order to expand and activate T cells. On the day of the assay, the cells were harvested and stained with a titration of each anti-OX40 antibody. Bound antibodies were detected with a fluorescently conjugated anti-human IgG polyclonal secondary antibody, and the cells were co-stained for CD4 and CD25 to detect activated CD4 T cells. The fluorescence intensity of the staining was measured using a FACSCanto II flow cytometer (Becton Dickinson). The geometric mean fluorescence intensity (GMFI) or median fluorescence intensity (MedFI) of anti-OX40 antibody staining was calculated for the CD4+CD25+ population (FACSDiva software). Dose-response curves were generated and EC50s for antibody binding were calculated using GraphPad Prism software.
The same experiment was performed with anti-OX40 antibodies with variable region substitutions.

This note sets out measurements from US20180237534A1 (Bristol-Myers Squibb, published 2018).

B1: OX40.6 (antibody, human IgG1, kappa, V domains shown)
VH: EVQLVQSGGGLVQPGGSLRLSCAGSGFTFSNYAMYWVRQAPGKGLEWVSAIGIGGDTFYTDSVKGRFTISRDNAKNSLSLQMNSLRAEDTAVYYCARMGTGYFFDYWGQGTLVTVSS
VL: EIVLTQSPATLSLSPGERATLSCRASQSVSSYLAWYQQKPGQAPRLLIYDASNRATGIPARFSGSGSGTDFTLTISSLEPEDFAVYYCQQRSNWPLTFGPGTKVDIKR
notes: g1f; 23H3 with VH-H13Q/M87T
In the case of B1, the “EC50 (read off the curve)” value in experiment [1] and in experiment [2] was around 0.1 nM each time.
